Results published in article PMC7144912 (Nucleic Acids Research, 2020).
Read-outs that look alike come from different tables or passages of the source.

Key:
crystal structure = target: the molecule itself; assay: crystal structure
[1] = target: T1, DNMT3B catalytic domain (3B-CD);DNMT3L catalytic-like domain (3L-CD) (Homo sapiens;Homo sapiens, UniProt Q9UBC3;Q9UJW3 571-853;178-379, |); assay: X-ray crystallography
[2] = target: T1, DNMT3B catalytic domain (3B-CD);DNMT3L …; assay: X-ray crystallography; remark: listed apart in the source

T1 sequence (Q9UJW3 178-379, one chain of several): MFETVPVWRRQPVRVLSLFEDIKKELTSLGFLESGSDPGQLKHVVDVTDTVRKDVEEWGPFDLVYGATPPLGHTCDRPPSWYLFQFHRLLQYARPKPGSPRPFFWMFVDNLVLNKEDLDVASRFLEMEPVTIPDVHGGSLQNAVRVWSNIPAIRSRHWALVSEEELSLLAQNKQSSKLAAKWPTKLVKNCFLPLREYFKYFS

B1: catalytic domain of human DNMT3B (3B-CD, residues 571–853) (domain or fragment, UniProt Q9UBC3 571-853, looked up)
chain: RRRPIRVLSLFDGIATGYLVLKELGIKVGKYVASEVCEESIAVGTVKHEGNIKYVNDVRNITKKNIEEWGPFDLVIGGSPCNDLSNVNPARKGLYEGTGRLFFEFYHLLNYSRPKEGDDRPFFWMFENVVAMKVGDKRDISRFLECNPVMIDAIKVSAAHRARYFWGNLPGMNRPVIASKNDKLELQDCLEYNRIAKLKKVQTITTKSNSIKQGKNQLFPVVMNGKEDVLWCTELERIFGFPVHYTDVSNMGRGARQKLLGRSWSVPVIRHLFAPLKDYFACE
binding result (crystal structure): binds

B2: CpGpG crystallization duplex (dsDNA)
DNA 1: GAATTCGGAAAAATTTTTCCGAATT
DNA 2: GAATTCGGAAAAATTTTTCCGAATT
binding result [1]: binds

B3: CpGpT crystallization duplex (dsDNA)
DNA 1: GCATGCGTTCTAATTAGAACGCATG
DNA 2: GCATGCGTTCTAATTAGAACGCATG
binding result [2]: binds
